Results published in patent US20090035317A1, “Peptides binding to vascular endothelial growth factor” (priority 2007, published 2009).
Each block holds one molecule with its values, some of them ahead of it. Bridge positions count the residues as written; N and C are the ends. Ends that are not written are not given here.

Assays:
[1] = tested on: biotinylated VEGF; test: First order dissociation rate constants (koff) of cell-surface displayed peptides, flow cytometry; type: binding; conditions: peptide displayed on bacterial cell surface; for RT koff: room temperature
Sequence of biotinylated VEGF (P15692 207-320 limits assumed): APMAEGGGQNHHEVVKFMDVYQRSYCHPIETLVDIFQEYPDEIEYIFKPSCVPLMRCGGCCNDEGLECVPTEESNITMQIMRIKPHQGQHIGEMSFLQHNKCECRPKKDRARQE
Method: (§1) Cells displaying VEGF-binding peptides were first incubated with biotinylated VEGF and allowed to equilibrate at 4° C. After centrifugation, excess VEGF was removed. The cells were then resuspended in buffer, such that the concentration of cells was diluted 1:10, as compared to the VEGF-labeling step. Cells were allowed to incubate in buffer at room temperature or 37° C. for times varying from 5 minutes to 21 hours to allow dissociation of VEGF from the cell surface. After the appropriate amount of time, the cells were placed on ice to stop the dissociation, and streptavidin-phycoerythrin (SAPE) was added for fluorescence labeling. After centrifugation, excess SAPE was removed, and cellular fluorescence was measured by flow cytometry. Fluorescence data as a function of dissociation time was used to determine koff.

[2] = tested on: VEGF; test: Clone characterization: off-rate from VEGF at room temperature (Example 1); type: binding; conditions: 10 nM VEGF labeling, FIG. 3, FIG. 4
Method: Initial measurements of off-rate were made for each clone in order to narrow down the search for the best binding peptide. Each clone was labeled with 10-nM VEGF. Excess VEGF was washed away, and the protein was allowed to dissociate for 15 and 30 minutes at room temperature. SAPE was added, and secondary labeling was performed on ice. Excel's Regression function was used to calculate koff for each peptide using three time points (0, 15, and 30 minutes) and the standard error for the regression.
Each clone was incubated with 10 nM VEGF and allowed to come to equilibrium. The excess VEGF was washed away, and the cells were separated into 4 aliquots and diluted 1/10 in room temperature PBS. SAPE was added to the appropriate aliquot after 5, 10, 15, and 30 minutes for secondary labeling on ice. The mean fluorescence at these time points was used to determine koff. In most cases, the t=30 minute point could not be incorporated into the regression.
Target sequence in this assay (P15692 207-315 limits assumed): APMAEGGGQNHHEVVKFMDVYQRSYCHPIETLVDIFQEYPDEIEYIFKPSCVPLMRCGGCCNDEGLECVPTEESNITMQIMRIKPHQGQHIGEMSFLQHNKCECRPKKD

[3] = tested on: VEGF; test: Equilibrium binding of displayed clones with VEGF at 1 nM and 10 nM; conditions: displayed on cell surface
Target sequence in this assay (P15692 207-320 limits assumed): as the sequence (P15692 207-320 limits assumed) above

[4] = tested on: VEGF; test: Specificity: retention of VEGF binding fluorescence in BSA and serum; conditions: 10-nM VEGF; serum dilutions; FIG. 5
Method: In addition, measurements of specificity were performed for the four peptides whose off-rate could be calculated. Each clone was incubated with 10-nM VEGF in varying dilutions of BSA and serum followed by secondary labeling with SAPE at the same BSA/serum concentration. It was assumed that a specific peptide would retain more fluorescence upon serum addition than a non-specific peptide. The serum was first prepared by incubation with cells overexpressing the CPXopt template, spinning down the cell pellet and any bacteria-specific proteins bound to them, and removing the supernatant for incubation with the selected clones. Adding BSA up to physiological conditions decreased the mean fluorescence of each clone by an average of ˜40%, seemingly indicating some degree of specificity. […] FIG. 5 gives the fluorescence remaining after serum addition relative to initial fluorescence (at a serum dilution of 1/100), which was taken to be a measure of the specificity of the interaction between the peptide and VEGF. […] Therefore, the change in fluorescence of a gated population of positive binding cells was used to determine the specificity metric. In some cases with undiluted serum, a significant fraction of cells (>˜1%) still fell into this positive, and the fluorescence of this small fraction of cells was used to calculate the specificity. […]
Target sequence in this assay (P15692 207-320 limits assumed): as above

[5] = molecular target: T1, VEGF (Homo sapiens, UniProt P15692); conditions: Fairbrother et al. (1998); read-out: reported equilibrium dissociation constant (KD); cited from earlier work
T1 sequence (P15692 214-315 limits assumed): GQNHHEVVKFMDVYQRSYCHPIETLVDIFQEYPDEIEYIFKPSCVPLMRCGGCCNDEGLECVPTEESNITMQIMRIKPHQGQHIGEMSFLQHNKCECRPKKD

[6] = tested on: biotinylated recombinant murine VEGF (rmVEGF); test: Murine cross-reactivity, flow cytometry; type: binding; conditions: rmVEGF at 25 and 250 nM
Sequence of biotinylated recombinant murine VEGF (rmVEGF) (Q00731 205-317 limits assumed): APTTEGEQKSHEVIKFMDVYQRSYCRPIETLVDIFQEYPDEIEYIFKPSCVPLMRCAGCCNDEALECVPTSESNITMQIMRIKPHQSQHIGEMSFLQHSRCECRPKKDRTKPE
Method: Cells expressing VEGF-binding peptides were incubated with biotinylated recombinant murine VEGF (rmVEGF). Fluorescence labeling was performed with SAPE as previously described. The first seven clones listed in Table 5 as well as v114 were assayed for cross-reactivity with rmVEGF. All of the ligands analyzed bound rmVEGF at concentrations of 25 and 250 nM, as measured by flow cytometry.

[7] = molecular target: T2, vascular endothelial growth factor (VEGF) (UniProt P15692-4 27-191, limits assumed, biotinylated); test: apparent equilibrium KD measured from the bacterial cell surface, flow cytometry
T2 construct: Soluble biotinylated VEGF used to label cells that display the peptides; also called biotinylated VEGF
T2 sequence (P15692 other isoform, or with tags, fused parts or gaps limits assumed): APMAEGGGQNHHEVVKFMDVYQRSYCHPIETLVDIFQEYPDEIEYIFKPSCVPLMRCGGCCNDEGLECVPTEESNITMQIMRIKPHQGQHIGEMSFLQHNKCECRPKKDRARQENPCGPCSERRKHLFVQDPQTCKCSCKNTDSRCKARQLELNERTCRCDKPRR

[8] = molecular target: T2, vascular endothelial growth factor …; test: flow cytometry, peptide displayed on bacterial cell surface, dissociation of biotinylated VEGF at room temperature
Method: as §1

[9] = molecular target: T2, vascular endothelial growth factor …; test: flow cytometry, peptide displayed on bacterial cell surface, dissociation of biotinylated VEGF at 37° C.
Method: as §1

[10] = molecular target: T2, vascular endothelial growth factor …; test: flow cytometry competition; soluble v114 premixed with biotinylated VEGF; competitor: displayed L3.F5A.01, compared with displayed L2.F4.04
Method: Biotinylated VEGF was first mixed with various concentrations of soluble v114 peptide (Anaspec); the ratio of soluble peptide to VEGF ranged from ˜2:1 to 5000:1. Cells expressing VEGF binding peptides were then incubated with this VEGF/peptide mixture and allowed to equilibrate at 4° C. After centrifugation, unbound protein/peptide was removed, and the cells were resuspended in SAPE for fluorescence labeling.

[11] = molecular target: T2, vascular endothelial growth factor …; test: comparison of 37° C. koff values of Table 5, flow cytometry on displayed peptides
Method: as §1

[12] = molecular target: T2, vascular endothelial growth factor …; test: comparison of room temperature koff values of Table 5, flow cytometry on displayed peptides
Method: as §1

Molecule: AKRSSYSMWGAMPGGGSGGGNFGYGKWEWDYGKWLEKV [Clone L3.F5A.03, AKRSSYSMWGAMP-GGGSGGG-NFGYGKWEWDYGKWLEKV]
37° C. koff [1]: 0.0006 s⁻¹
RT koff [1]: 4.28e-05 s⁻¹

Molecule: HQQLQYWDWIEAVVHNG (VEGF-binding peptide) [Clone L2.F3A.05]
dissociation rate (in words) [2]: slow dissociation rates

Molecule: SKLKTLLWQQGGGSGGGNFGYGKWEWDYGKWLEKV [Clone L3.F6.02, SKLKTLLWQQ-GGGSGGG-NFGYGKWEWDYGKWLEKV]
37° C. koff [1]: 0.0014 s⁻¹
RT koff [1]: 0.000291 s⁻¹

Molecule: SSKCGRWGETPCLAEGGGSGGGNFGYGKWEWDYGKWLEKVG [Clone L3.F5A.01, SSKCGRWGETPCLAE-GGGSGGG-NFGYGKWEWDYGKWLEKVG]
37° C. koff [1]: 0.00012 s⁻¹
RT koff [1]: 2e-05 s⁻¹

Molecule: SYVLKEWSVPSWGKPGGGSGGGNFGYGKWEWDYGKWLEKV [Clone L3.F6.01, SYVLKEWSVPSWGKP-GGGSGGG-NFGYGKWEWDYGKWLEKV]
37° C. koff [1]: 0.00025 s⁻¹
RT koff [1]: 0.00011 s⁻¹

Molecule: VTSRYEMREDGSWKKGGGSGGGNFGYGKWEWDYGKWLEKVG [Clone L3.F5A.02, VTSRYEMREDGSWKK-GGGSGGG-NFGYGKWEWDYGKWLEKVG]
37° C. koff [1]: 0.00074 s⁻¹

Molecule: WKELRFWDWEGGNHKKCVT (VEGF-binding peptide) [Clone L2.F3B.12]
dissociation rate (in words) [2]: slow dissociation rates

B1: L2.F3B.08 (peptide)
peptide: CPVQTMWDWECMRAFIEG
modifications: disulfide 1-11 (inferred)
notes: not shown: CPXopt bacterial display scaffold (carrier)
Kd [7]: 17.8 nM
koff [8]: 0.0072 s⁻¹
koff [9]: 0.0042 s⁻¹

Second part, led by results:

fluorescence labeling when bound to VEGF [3]: bright fluorescence signals
Molecule: CPVQTMWDWECMRAFIEG [Clone L2.F3B.08]
dissociation rate (in words) [2]: good dissociation kinetics
37° C. koff [1]: 0.0042 s⁻¹
RT koff [1]: 0.0072 s⁻¹
effect of serum addition on VEGF binding fluorescence [4]: loses more fluorescence upon serum addition than does L2.F4.04

fluorescence labeling when bound to VEGF [3]: better labeling
Molecule: GPGWWLWDWDNLGARRGGL (VEGF-binding peptide) [Clone L2.F3A.10]

fluorescence labeling when bound to VEGF [3]: bright fluorescence signals
Molecule: NFGYGKWEWDYGKWLEKVG [Clone L2.F4.04]
dissociation rate (in words) [2]: slow dissociation rates
37° C. koff [1]: 0.0013 s⁻¹
RT koff [1]: 0.0013 s⁻¹

binding of rmVEGF [6]: bound rmVEGF
Molecule: VEPNCDIHVMWEWECFERL [v114, soluble peptide from Anaspec; positive control]
Kd [5]: 110 nM

Kd [7]: 6.1 nM
koff [8]: 0.0013 s⁻¹
koff [9]: 0.0013 s⁻¹
B2: L2.F4.04 (peptide)
peptide: NFGYGKWEWDYGKWLEKVG
notes: as for B1

Kd [7]: 3.7 nM
koff [8]: 4.28e-05 s⁻¹
koff [9]: 0.0006 s⁻¹
B3: L3.F5A.03 (peptide)
peptide: AKRSSYSMWGAMPGGGSGGGNFGYGKWEWDYGKWLEKV
modifications: Displayed on the E. coli surface as a fusion to CPXopt; the letters do not carry the scaffold.
notes: Peptide 2 is printed without the final G of L2.F4.04; not shown: CPXopt bacterial display scaffold that carried the peptide on the cell surface

fold increase in the concentration of v114 required to block 50% of VEGF binding, bidentate peptide against parent peptide [10]: ≥ 5 fold
Molecule: VEPNCDIHVMWEWECFERL (also called Genentech v114 peptide) [soluble v114 peptide (Anaspec)]

fold improvement (slower dissociation) against the monodendate parent peptide L2.F4.04 [11]: ≤ 12 fold
Kd [7]: 2.1 nM
koff [8]: 2e-05 s⁻¹
fold improvement (slower dissociation) against the monodendate parent peptide L2.F4.04 [12]: 4 to 65 fold
koff [9]: 0.00012 s⁻¹
B4: L3.F5A.01 (peptide)
peptide: SSKCGRWGETPCLAEGGGSGGGNFGYGKWEWDYGKWLEKVG
notes: also called bidentate peptide L3.F5A.01; not shown: CPXopt bacterial display scaffold (carrier)

Kd [7]: 2.6 nM
koff [9]: 0.00074 s⁻¹
B5: L3.F5A.02 (peptide)
peptide: VTSRYEMREDGSWKKGGGSGGGNFGYGKWEWDYGKWLEKVG
notes: as for B1

Kd [7]: 3.5 nM
koff [8]: 0.00011 s⁻¹
koff [9]: 0.00025 s⁻¹
B6: L3.F6.01 (peptide)
peptide: SYVLKEWSVPSWGKPGGGSGGGNFGYGKWEWDYGKWLEKV
modifications: Displayed on the E. coli surface as a fusion to CPXopt; the letters do not carry the scaffold.
notes: as for B3

Kd [7]: 5 nM
koff [8]: 0.000291 s⁻¹
fold improvement (slower dissociation) against the monodendate parent peptide L2.F4.04 [12]: 4 to 65 fold
koff [9]: 0.0014 s⁻¹
B7: L3.F6.02 (peptide)
peptide: SKLKTLLWQQGGGSGGGNFGYGKWEWDYGKWLEKV
modifications: Displayed on the E. coli surface as a fusion to CPXopt; the letters do not carry the scaffold.
notes: as for B3
